These results are taken from IntAct's records for PubMed 17036044.

To fix the notation:
B1: Serine/arginine-rich splicing factor 3 (Homo sapiens), P84103 (parent)
chain: MHRDSCPLDCKVYVGNLGNNGNKTELERAFGYYGPLRSVWVARNPPGFAFVEFEDPRDAADAVRELDGRTLCGCRVRVELSNGEKRSRNRGPPPSWGRRPRDDYRRRSPPPRRRSPRRRSFSRSRSRSLSRDRRRERSLSRERNHKPSRSFSRSRSRSRSNERK
partner: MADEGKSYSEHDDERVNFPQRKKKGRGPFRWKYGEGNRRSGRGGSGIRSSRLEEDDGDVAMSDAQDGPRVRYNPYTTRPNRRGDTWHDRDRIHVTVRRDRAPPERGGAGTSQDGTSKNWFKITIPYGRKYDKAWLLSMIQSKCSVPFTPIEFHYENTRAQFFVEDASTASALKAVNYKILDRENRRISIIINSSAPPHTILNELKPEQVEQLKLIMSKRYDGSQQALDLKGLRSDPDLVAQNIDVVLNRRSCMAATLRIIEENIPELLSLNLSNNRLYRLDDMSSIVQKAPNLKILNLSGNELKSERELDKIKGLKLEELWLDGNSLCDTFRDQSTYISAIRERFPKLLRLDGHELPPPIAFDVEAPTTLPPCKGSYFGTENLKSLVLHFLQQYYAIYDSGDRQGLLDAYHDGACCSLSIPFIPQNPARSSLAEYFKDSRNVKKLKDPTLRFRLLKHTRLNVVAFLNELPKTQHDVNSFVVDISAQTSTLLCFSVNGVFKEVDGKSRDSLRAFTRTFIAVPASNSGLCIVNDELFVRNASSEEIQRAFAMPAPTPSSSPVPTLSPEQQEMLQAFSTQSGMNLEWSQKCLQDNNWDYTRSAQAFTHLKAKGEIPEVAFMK
B2: Serine/arginine-rich splicing factor 7 (Homo sapiens), Q16629 (parent)
chain: MSRYGRYGGETKVYVGNLGTGAGKGELERAFSYYGPLRTVWIARNPPGFAFVEFEDPRDAEDAVRGLDGKVICGSRVRVELSTGMPRRSRFDRPPARRPFDPNDRCYECGEKGHYAYDCHRYSRRRRSRSRSRSHSRSRGRRYSRSRSRSRGRRSRSASPRRSRSISLRRSRSASLRRSRSGSIKGSRYFQSPSRSRSRSRSISRPRSSRSKSRSPSPKRSRSPSGSPRRSASPERMD
partner: B1 partner

In the first experiment the parent is B1. As to conditions: with nxf1_human NXF1, Q9UBU9.
Regarding MHRDSCPLDCKVYVGNLGNNGNKTELERAFGYYGPLRSVWVARNPPGFAFVEFEDPRDAADAVRELDGRTLCGCRVRVELSNGEKRSENRGPPPSWGRRPRDDYRRRSPPPRRRSPRRRSFSRSRSRSLSRDRRRERSLSRERNHKPSRSFSRSRSRSRSNERK [R88E], the “effect of a mutation on the interaction” value was “disrupting interaction”.

Variants of B1 are the subject of another experiment. As to conditions: with nxf1_human NXF1, Q9UBU9. The source holds these as a separate data set.
MHRDSCPLDCKVYVGNLGNNGNKTELERAFGYYGPLRSVWVARNPPGFAFVEFEDPRDAADAVRELDGRTLCGCRVRVELSNGEKRSRNEGPPPSWGRRPRDDYRRRSPPPRRRSPRRRSFSRSRSRSLSRDRRRERSLSRERNHKPSRSFSRSRSRSRSNERK [R90E]: the “effect of a mutation on the interaction” value is on record as “disrupting interaction”.

Another experiment covers variants of B1. As to conditions: with nxf1_human NXF1, Q9UBU9. The source holds these as a separate data set.
For MHRDSCPLDCKVYVGNLGNNGNKTELERAFGYYGPLRSVWVARNPPGFAFVEFEDPRDAADAVRELDGRTLCGCRVRVELSNGEKESRNRGPPPSWGRRPRDDYRRRSPPPRRRSPRRRSFSRSRSRSLSRDRRRERSLSRERNHKPSRSFSRSRSRSRSNERK [R86E], the “effect of a mutation on the interaction” value is “disrupting interaction”.

The variants in the next experiment derive from B2. As to conditions: with nxf1_human NXF1, Q9UBU9.
Regarding MSRYGRYGGETKVYVGNLGTGAGKGELERAFSYYGPLRTVWIARNPPGFAFVEFEDPRDAEDAVRGLDGKVICGSRVRVELSTGMPRRSRFDRPPAERPFDPNDRCYECGEKGHYAYDCHRYSRRRRSRSRSRSHSRSRGRRYSRSRSRSRGRRSRSASPRRSRSISLRRSRSASLRRSRSGSIKGSRYFQSPSRSRSRSRSISRPRSSRSKSRSPSPKRSRSPSGSPRRSASPERMD [R97E], the “effect of a mutation on the interaction” value was “disrupting interaction”.
The same measure, in the same setting: the value for MSRYGRYGGETKVYVGNLGTGAGKGELERAFSYYGPLRTVWIARNPPGFAFVEFEDPRDAEDAVRGLDGKVICGSRVRVELSTGMPRRSRFDRPPAREPFDPNDRCYECGEKGHYAYDCHRYSRRRRSRSRSRSHSRSRGRRYSRSRSRSRGRRSRSASPRRSRSISLRRSRSASLRRSRSGSIKGSRYFQSPSRSRSRSRSISRPRSSRSKSRSPSPKRSRSPSGSPRRSASPERMD [R98E] was “disrupting interaction”.

The variants in the next experiment derive from B2. As to conditions: with nxf1_human NXF1, Q9UBU9. The source holds these as a separate data set.
As to MSRYGRYGGETKVYVGNLGTGAGKGELERAFSYYGPLRTVWIARNPPGFAFVEFEDPRDAEDAVRGLDGKVICGSRVRVELSTGMPRESRFDRPPARRPFDPNDRCYECGEKGHYAYDCHRYSRRRRSRSRSRSHSRSRGRRYSRSRSRSRGRRSRSASPRRSRSISLRRSRSASLRRSRSGSIKGSRYFQSPSRSRSRSRSISRPRSSRSKSRSPSPKRSRSPSGSPRRSASPERMD [R88E], the “effect of a mutation on the interaction” value was “disrupting interaction”.
Regarding MSRYGRYGGETKVYVGNLGTGAGKGELERAFSYYGPLRTVWIARNPPGFAFVEFEDPRDAEDAVRGLDGKVICGSRVRVELSTGMPERSRFDRPPARRPFDPNDRCYECGEKGHYAYDCHRYSRRRRSRSRSRSHSRSRGRRYSRSRSRSRGRRSRSASPRRSRSISLRRSRSASLRRSRSGSIKGSRYFQSPSRSRSRSRSISRPRSSRSKSRSPSPKRSRSPSGSPRRSASPERMD [R87E], the “effect of a mutation on the interaction” value is on record as “disrupting interaction”.
